Measurements published in US20260061022A1 (GI INNOVATION, published 2026).

T1: IgE (Homo sapiens (Human), UniProt P01854 1-427)
T1 construct: also called immunoglobulin E
T1 constant: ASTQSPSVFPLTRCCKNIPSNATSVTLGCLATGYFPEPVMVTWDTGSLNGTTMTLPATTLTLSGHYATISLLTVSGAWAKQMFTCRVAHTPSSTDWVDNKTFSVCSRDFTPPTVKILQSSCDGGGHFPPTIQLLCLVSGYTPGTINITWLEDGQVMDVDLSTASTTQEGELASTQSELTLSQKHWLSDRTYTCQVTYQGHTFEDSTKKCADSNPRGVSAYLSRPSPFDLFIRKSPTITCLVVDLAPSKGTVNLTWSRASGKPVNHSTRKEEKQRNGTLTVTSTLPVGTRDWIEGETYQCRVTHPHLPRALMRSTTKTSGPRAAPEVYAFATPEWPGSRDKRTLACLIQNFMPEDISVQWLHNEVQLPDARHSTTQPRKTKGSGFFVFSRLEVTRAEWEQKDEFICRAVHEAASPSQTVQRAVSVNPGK

T2: IgG Fc gamma receptor IIB (UniProt P31994 46-217, limits assumed)
T2 construct: Bought recombinant protein immobilised on an AR2G biosensor; also called FcγRIIB
T2 sequence (looked up): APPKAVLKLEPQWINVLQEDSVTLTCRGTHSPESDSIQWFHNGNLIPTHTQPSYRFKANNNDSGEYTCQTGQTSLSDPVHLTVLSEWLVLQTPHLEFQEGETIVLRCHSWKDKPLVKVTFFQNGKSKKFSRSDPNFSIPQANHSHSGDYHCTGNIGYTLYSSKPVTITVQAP

T3: IgG Fc gamma receptor IIA (UniProt P12318 36-218, limits assumed)
T3 construct: Bought recombinant protein immobilised on an AR2G biosensor; also called FcγRIIA
T3 sequence (looked up): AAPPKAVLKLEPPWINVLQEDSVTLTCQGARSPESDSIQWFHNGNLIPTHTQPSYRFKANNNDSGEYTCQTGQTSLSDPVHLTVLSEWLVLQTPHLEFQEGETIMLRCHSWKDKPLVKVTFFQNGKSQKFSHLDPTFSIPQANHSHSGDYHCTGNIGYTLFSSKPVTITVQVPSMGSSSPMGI


Legend:
[1] = target: T1, IgE; assay: SPR, ProteOn XPR36, IgE coated on GLC chip, analyte flowed
Description: (§1) Here, the experiments were conducted by identifying zero base using 25 mM NaOH as a regeneration buffer, and then repeating the above steps. Thereafter, a binding curve was identified using a protein binding analyzer (ProteOn XPR36, Bio-Rad Laboratories, Inc., USA).

[2] = target: T2, IgG Fc gamma receptor IIB; assay: BLI (Octet RED384), FcγRIIB immobilised on AR2G biosensor, IgETRAP in solution
Description: (§2) Specifically, FcγRI, FcγRIIA, FcγRIIB, FcγRIIIA, and FcγRIIIB recombinant proteins (R & D Systems Inc., 5 μg/ml) which are Fc gamma receptors were immobilized in 300 mM acetate buffer (pH 5) on the activated AR2G biosensor. As a running buffer, PBS containing 0.1% Tween-20 and 1% bovine serum was used. All measurements were carried out at 30° C. with a sample plate shaker at a rate of 1,000 rpm.

[3] = target: T1, IgE; assay: SPR (ProteOn XPR36), IgE coated on the GLC sensor chip, IgETRAP flowed at 0, 3.2, 6.3, 12.5, 25 and 50 nM
[4] = target: T3, IgG Fc gamma receptor IIA; assay: BLI (Octet RED384), FcγRIIA immobilised on AR2G biosensor, IgETRAP in solution
Description: as §2

[5] = target: IgE (Experimental Example 4); assay: cell-based or functional assay
[6] = target: T4, IgG Fc gamma receptor I (UniProt P12314 16-288); assay: BLI (Octet RED384), FcγRI immobilised on AR2G biosensor, IgETRAP in solution
T4 construct: Bought recombinant protein immobilised on an AR2G biosensor; also called FcγRI
T4 sequence (P12314 16-288 limits assumed): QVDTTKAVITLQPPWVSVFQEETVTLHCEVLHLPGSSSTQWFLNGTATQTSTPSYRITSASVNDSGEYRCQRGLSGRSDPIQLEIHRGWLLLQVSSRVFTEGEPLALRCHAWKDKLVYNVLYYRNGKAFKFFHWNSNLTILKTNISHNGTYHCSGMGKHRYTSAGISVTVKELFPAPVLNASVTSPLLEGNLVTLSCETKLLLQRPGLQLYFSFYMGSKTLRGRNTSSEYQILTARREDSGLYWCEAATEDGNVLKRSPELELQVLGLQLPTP
Description: as §2

[7] = target: T1, IgE; assay: kinetic binding measurement of Table 3, KD against omalizumab as reference; the end is tied to FcεRIαECD-Fc2ST by 'exhibits the highest IgE-binding affinity which is 69-fold higher than omalizumab'
Description: as §1

[8] = target: human IgE (human, UniProt P01854-1 1-428); assay: cell-based or functional assay
[9] = target: T5, IgG Fc gamma receptor IIIB (UniProt O75015 20-208, limits assumed); assay: BLI response at 4 uM, FcγRIIIB immobilised on AR2G biosensor
T5 construct: Bought recombinant protein immobilised on an AR2G biosensor; also called FcγRIIIB
T5 sequence (O75015 20-208 limits assumed): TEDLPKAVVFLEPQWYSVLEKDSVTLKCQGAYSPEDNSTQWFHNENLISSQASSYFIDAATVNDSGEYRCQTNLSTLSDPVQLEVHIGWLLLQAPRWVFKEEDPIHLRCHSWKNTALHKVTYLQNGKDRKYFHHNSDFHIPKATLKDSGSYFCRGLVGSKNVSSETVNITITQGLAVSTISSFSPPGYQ
Description: as §2

Binder	fold better KD than omalizumab [1] [fold]	fold better kd than omalizumab [1] [fold]	fold weaker ka than omalizumab [1] [fold]	binding result [2]	Kd [3] [pM]	binding result [4]	IC50 (read off the curve); inhibition ratio (%) of beta-hexosaminidase release from mouse bone marrow-derived mast cells, dimer pre-mixed with IgE at 1 ug/mL [5] [µg/mL]	binding result [6]	fold change of equilibrium dissociation constant (KD) against omalizumab (printed as 'higher'; meant as higher affinity) [7] [fold]	IC50, inhibition of β-hexosaminidase secretion by human FcεRI-expressing mouse bone marrow-derived mast cells [8] [µg/mL]	fold higher inhibitory ability on mast cell activity than Xolair [8] [fold]	binding result [9]
FcεRIαECD-Fc3 (Fc fusion, Made in CHO DG44 cells without the sialic acid transferase; Homodimer; also called polypeptide dimer) VPQKPKVSLNPPWNRIFKGENVTLTCNGNNFFEVSSTKWFHNGSLSEETNSSLNIVNAKFEDSGEYKCQHQQVNESEPVYLEVFSDWLLLQASAEVVMEGQPLFLRCHGWRNWDVYKVIYYKDGEALKYWYENHNISITNATVEDSGTYYCTGKVWQLDYESEPLNITVIKAPREKYWLQAQPQAEGSLAKATTAPATTRNTGRGGEEKKGSKEKEEQEERETKTPECPSHTQPLGVFLFPPKPKDTLMISRTPEVTCVVVDVSQEDPEVQFNWYVDGVEVHNAKTKPREEQFNSTYRVVSVLTVLHQDWLNGKEYKCKVSNKGLPSSIEKTISKAKGQPREPQVYTLPPSQEEMTKNQVSLTCLVKGFYPSDIAVEWESNGQPENNYKTTPPVLDSDGSFFLYSRLTVDKSRWQEGNVFSCSVMHEALHNHYTQKSLSLSLGK	22	45	2									
FcεRIαECD-Fc2ST (Fc fusion, sialic acid added to the glycans by co-expressed α-2,6-sialic acid transferase, Homodimer; also called IgETRAP; FcεRIαECD-Fc2 + a2,6-ST) VPQKPKVSLNPPWNRIFKGENVTLTCNGNNFFEVSSTKWFHNGSLSEETNSSLNIVNAKFEDSGEYKCQHQQVNESEPVYLEVFSDWLLLQASAEVVMEGQPLFLRCHGWRNWDVYKVIYYKDGEALKYWYENHNISITNATVEDSGTYYCTGKVWQLDYESEPLNITVIKAPREKYWLQRNTGRGGEEKKGSKEKEEQEERETKTPECPSHTQPLGVFLFPPKPKDTLMISRTPEVTCVVVDVSQEDPEVQFNWYVDGVEVHNAKTKPREEQFNSTYRVVSVLTVLHQDWLNGKEYKCKVSNKGLPSSIEKTISKAKGQPREPQVYTLPPSQEEMTKNQVSLTCLVKGFYPSDIAVEWESNGQPENNYKTTPPVLDSDGSFFLYSRLTVDKSRWQEGNVFSCSVMHEALHNHYTQKSLSLSLGK	69	106	1.5	no binding (tested: 4 uM)	215	no binding (tested: 4 uM)	~0.5	no binding (tested: 4 uM)	22 to 69	~0.0112	58	no binding (tested: 4 uM)

Continued, values first:

fold better KD than omalizumab [1] [fold]	fold better kd than omalizumab [1] [fold]	fold weaker ka than omalizumab [1] [fold]	binding result [2]	Kd [3] [pM]	binding result [4]	IC50 (read off the curve); inhibition ratio (%) of beta-hexosaminidase release from mouse bone marrow-derived mast cells, dimer pre-mixed with IgE at 1 ug/mL [5] [µg/mL]	binding result [6]	fold change of equilibrium dissociation constant (KD) against omalizumab (printed as 'higher'; meant as higher affinity) [7] [fold]	IC50, inhibition of β-hexosaminidase secretion by human FcεRI-expressing mouse bone marrow-derived mast cells [8] [µg/mL]	fold higher inhibitory ability on mast cell activity than Xolair [8] [fold]	binding result [9]	Binder
24	40	1.7										FcεRIαECD-Fc3ST (Fc fusion, sialic acid added to the glycans by co-expressed α-2,6-sialic acid transferase, Homodimer; also called FcεRIαECD-Fc3 + a2,6-ST; polypeptide dimer) VPQKPKVSLNPPWNRIFKGENVTLTCNGNNFFEVSSTKWFHNGSLSEETNSSLNIVNAKFEDSGEYKCQHQQVNESEPVYLEVFSDWLLLQASAEVVMEGQPLFLRCHGWRNWDVYKVIYYKDGEALKYWYENHNISITNATVEDSGTYYCTGKVWQLDYESEPLNITVIKAPREKYWLQAQPQAEGSLAKATTAPATTRNTGRGGEEKKGSKEKEEQEERETKTPECPSHTQPLGVFLFPPKPKDTLMISRTPEVTCVVVDVSQEDPEVQFNWYVDGVEVHNAKTKPREEQFNSTYRVVSVLTVLHQDWLNGKEYKCKVSNKGLPSSIEKTISKAKGQPREPQVYTLPPSQEEMTKNQVSLTCLVKGFYPSDIAVEWESNGQPENNYKTTPPVLDSDGSFFLYSRLTVDKSRWQEGNVFSCSVMHEALHNHYTQKSLSLSLGK
38	73	1.9										FcεRIαECD-Fc2 (Fc fusion, Made in CHO DG44 cells without the sialic acid transferase; Homodimer joined through the hinge cysteine; also called polypeptide dimer) VPQKPKVSLNPPWNRIFKGENVTLTCNGNNFFEVSSTKWFHNGSLSEETNSSLNIVNAKFEDSGEYKCQHQQVNESEPVYLEVFSDWLLLQASAEVVMEGQPLFLRCHGWRNWDVYKVIYYKDGEALKYWYENHNISITNATVEDSGTYYCTGKVWQLDYESEPLNITVIKAPREKYWLQRNTGRGGEEKKGSKEKEEQEERETKTPECPSHTQPLGVFLFPPKPKDTLMISRTPEVTCVVVDVSQEDPEVQFNWYVDGVEVHNAKTKPREEQFNSTYRVVSVLTVLHQDWLNGKEYKCKVSNKGLPSSIEKTISKAKGQPREPQVYTLPPSQEEMTKNQVSLTCLVKGFYPSDIAVEWESNGQPENNYKTTPPVLDSDGSFFLYSRLTVDKSRWQEGNVFSCSVMHEALHNHYTQKSLSLSLGK
